From patent US20210292396A1

Experiments:
Assay in all cases: cell-based or functional assay
[1] = molecular target: Env of HIV isolate 0815.v3.c3 (clade ACD) (HIV)
[2] = molecular target: Env of HIV isolate 25710-2.43 (clade C) (HIV)
[3] = molecular target: Env of HIV isolate 3637.v5.c3 (clade C) (HIV)
[4] = molecular target: Env of HIV isolate 620345.c1 (clade AE) (HIV)
[5] = molecular target: Env of HIV isolate 6838.v1.c35 (clade C) (HIV)
[6] = molecular target: Env of HIV isolate A03349M1.vrc4a (clade D) (HIV)
[7] = molecular target: Env of HIV isolate BJOX009000.02.4 (clade AE) (HIV)
[8] = molecular target: Env of HIV isolate C3347.c11 (clade AE) (HIV)
[9] = molecular target: Env of HIV isolate CAP256.206.C9 (clade C) (HIV)
[10] = molecular target: Env of HIV isolate CNE53 (clade C in Table 7) (HIV)
[11] = molecular target: Env of HIV isolate CNE59 (clade AE) (HIV)
[12] = molecular target: Env of HIV isolate CNE7 (clade BC) (HIV)
[13] = molecular target: Env of HIV isolate DJ263.8 (clade AG) (HIV)
[14] = molecular target: Env of HIV isolate DU123.06 (clade C) (HIV)
[15] = molecular target: Env of HIV isolate DU151.02 (clade C) (HIV)
[16] = molecular target: Env of HIV isolate HO86.8 (clade B) (HIV)
[17] = molecular target: Env of HIV isolate MN.3 (clade B) (HIV)
[18] = molecular target: Env of HIV isolate Q461.e2 (clade AD) (HIV)
[19] = molecular target: Env of HIV isolate SF162.LS (clade B) (HIV)
[20] = molecular target: Env of HIV isolate SO18.18 (clade C) (HIV)
[21] = molecular target: Env of HIV isolate THRO.18 (clade B) (HIV)
[22] = molecular target: Env of HIV isolate UG021.16 (clade D) (HIV)
[23] = molecular target: Env of HIV isolate ZM197.7 (clade C) (HIV)
[24] = molecular target: HIV Env of isolate 0260.v5.c36 (HIV)
[25] = molecular target: HIV Env of isolate 16936-2.21 (HIV)
[26] = molecular target: HIV Env of isolate 191821.E6.1 (HIV)
[27] = molecular target: HIV Env of isolate 242-14 (HIV)
[28] = molecular target: HIV Env of isolate 269-12 (HIV)
[29] = molecular target: HIV Env of isolate 286.36 (HIV)
[30] = molecular target: HIV Env of isolate BG1168.01 (HIV)
[31] = molecular target: HIV Env of isolate BR07.DG (HIV)
[32] = molecular target: HIV Env of isolate BS208.B1 (HIV)
[33] = molecular target: HIV Env of isolate C3347.c11 (HIV)
[34] = molecular target: HIV Env of isolate CH119.10 (HIV)
[35] = molecular target: HIV Env of isolate CNE14 (HIV)
[36] = molecular target: HIV Env of isolate CNE20 (HIV)
[37] = molecular target: HIV Env of isolate CNE3 (HIV)
[38] = molecular target: HIV Env of isolate HT593.1 (HIV)
[39] = molecular target: HIV Env of isolate JRCSF.JB (HIV) (UniProt P20871)
[40] = molecular target: HIV Env of isolate KER2008.12 (HIV)
[41] = molecular target: HIV Env of isolate KNH1209.18 (HIV)
[42] = molecular target: HIV Env of isolate MB539.2B7 (HIV)
[43] = molecular target: HIV Env of isolate MI369.A5 (HIV)
[44] = molecular target: HIV Env of isolate MW965.26 (HIV)
[45] = molecular target: HIV Env of isolate NKU3006.ec1 (HIV)
[46] = molecular target: HIV Env of isolate PVO.04 (HIV)
[47] = molecular target: HIV Env of isolate Q23.17 (HIV)
[48] = molecular target: HIV Env of isolate R3265.c6 (HIV)
[49] = molecular target: HIV Env of isolate T250-4 (HIV)
[50] = molecular target: HIV Env of isolate THRO.18 (HIV)
[51] = molecular target: HIV Env of isolate X1193.c1 (HIV)
[52] = molecular target: HIV Env of isolate ZM215.8 (HIV)
[53] = molecular target: HIV Env of isolate ZM249.1 (HIV)

Sequence of HIV Env of isolate JRCSF.JB (HIV) (P20871 32-848 limits assumed): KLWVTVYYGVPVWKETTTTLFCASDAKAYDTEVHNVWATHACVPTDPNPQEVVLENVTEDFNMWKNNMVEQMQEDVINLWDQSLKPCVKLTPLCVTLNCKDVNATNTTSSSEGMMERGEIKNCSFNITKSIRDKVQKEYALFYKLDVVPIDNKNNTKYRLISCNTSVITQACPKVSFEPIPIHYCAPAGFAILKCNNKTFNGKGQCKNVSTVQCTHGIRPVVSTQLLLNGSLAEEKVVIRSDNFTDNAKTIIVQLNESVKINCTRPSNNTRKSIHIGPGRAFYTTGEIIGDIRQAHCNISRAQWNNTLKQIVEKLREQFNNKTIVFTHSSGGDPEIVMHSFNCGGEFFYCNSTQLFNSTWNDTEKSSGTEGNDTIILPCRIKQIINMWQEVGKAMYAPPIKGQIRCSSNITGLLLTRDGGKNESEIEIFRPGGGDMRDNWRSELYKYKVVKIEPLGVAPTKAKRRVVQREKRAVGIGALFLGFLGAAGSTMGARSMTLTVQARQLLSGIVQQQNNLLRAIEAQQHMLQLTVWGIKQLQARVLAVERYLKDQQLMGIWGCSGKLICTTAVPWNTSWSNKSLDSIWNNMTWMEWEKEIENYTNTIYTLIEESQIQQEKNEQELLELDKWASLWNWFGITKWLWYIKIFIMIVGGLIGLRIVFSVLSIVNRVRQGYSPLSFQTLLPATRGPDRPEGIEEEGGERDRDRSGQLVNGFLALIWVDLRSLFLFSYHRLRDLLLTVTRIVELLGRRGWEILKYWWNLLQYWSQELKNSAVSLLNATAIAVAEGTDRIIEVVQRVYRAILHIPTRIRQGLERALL

## PGT121 (antibody)
[1]
  IC50, pseudovirus neutralization: 0.0323 µg/mL
[2]
  IC50, pseudovirus neutralization: 0.0227 µg/mL
[3]
  IC50, pseudovirus neutralization: > 50 µg/mL
[4]
  IC50, pseudovirus neutralization: > 50 µg/mL
[5]
  IC50, pseudovirus neutralization: 0.0613 µg/mL
[6]
  IC50, pseudovirus neutralization: 0.0747 µg/mL
[7]
  IC50, pseudovirus neutralization: 0.751 µg/mL
[8]
  IC50, pseudovirus neutralization: > 50 µg/mL
[9]
  IC50, pseudovirus neutralization: 0.02 µg/mL
[10]
  IC50, pseudovirus neutralization: 0.0263 µg/mL
[11]
  IC50, pseudovirus neutralization: > 50 µg/mL
[12]
  IC50, pseudovirus neutralization: 0.0477 µg/mL
[13]
  IC50, pseudovirus neutralization: 0.0577 µg/mL
[14]
  IC50, pseudovirus neutralization: 0.0477 µg/mL
[15]
  IC50, pseudovirus neutralization: 0.0117 µg/mL
[16]
  IC50, pseudovirus neutralization: > 50 µg/mL
[17]
  IC50, pseudovirus neutralization: > 50 µg/mL
[18]
  IC50, pseudovirus neutralization: > 50 µg/mL
[19]
  IC50, pseudovirus neutralization: 0.00733 µg/mL
[20]
  IC50, pseudovirus neutralization: 0.00533 µg/mL
[21]
  IC50, pseudovirus neutralization: > 50 µg/mL
[22]
  IC50, pseudovirus neutralization: 0.916 µg/mL
[23]
  IC50, pseudovirus neutralization: > 50 µg/mL
[24]
  IC80: 0.159 µg/mL
[25]
  IC80, pseudovirus neutralization: 0.024 µg/mL
[26]
  IC80, pseudovirus neutralization: > 50 µg/mL
[27]
  IC80: > 50 µg/mL
[28]
  IC80: 0.627 µg/mL
[29]
  IC80, pseudovirus neutralization: 0.027 µg/mL
[30]
  IC80: > 50 µg/mL
[31]
  IC80: 0.596 µg/mL
[32]
  IC80: > 50 µg/mL
[33]
  IC80: > 50 µg/mL
[34]
  IC80, pseudovirus neutralization: 0.0937 µg/mL
[35]
  IC80: 0.0243 µg/mL
[36]
  IC80, pseudovirus neutralization: 0.0127 µg/mL
[37]
  IC80: > 50 µg/mL
[38]
  IC80: > 50 µg/mL
[39]
  IC80: 0.162 µg/mL
[40]
  IC80: 6.55 µg/mL
[41]
  IC80: 0.0287 µg/mL
[42]
  IC80: > 50 µg/mL
[43]
  IC80: 0.128 µg/mL
[44]
  IC80, pseudovirus neutralization: 0.093 µg/mL
[45]
  IC80, pseudovirus neutralization: > 50 µg/mL
[46]
  IC80: 0.498 µg/mL
[47]
  IC80: 0.0267 µg/mL
[48]
  IC80: > 50 µg/mL
[49]
  IC80: 0.0123 µg/mL
[50]
  IC80: > 50 µg/mL
[51]
  IC80, pseudovirus neutralization: 0.147 µg/mL
[52]
  IC80, pseudovirus neutralization: 0.084 µg/mL
[53]
  IC80, pseudovirus neutralization: > 50 µg/mL
